Source: US20210277112A1 (BIOND BIOLOGICS, published 2021)
Like-named read-outs stand apart in the source and are kept apart here.

How the values were obtained:
ILT6 [1] = biological target: T1, ILT6 (UniProt Q8N6C8 24-439); assay: binding ELISA, column hILT6-His, negative control
LILRA1 [2] = biological target: T2, LILRA1 (UniProt O75019 17-461, limits assumed); assay: binding ELISA, column hLILRA1-His, negative control
recombinant ILT2 [3] = biological target: T3, recombinant ILT2 (human, UniProt Q8NHL6 24-461); assay: binding ELISA, hILT2-Fc, negative control
T3 construct: also called LILRB1; LIR1

PIRB [4] = biological target: T4, PIRB (UniProt P97484 25-642, limits assumed); assay: binding ELISA, column PIRB, negative control
T4 sequence (looked up): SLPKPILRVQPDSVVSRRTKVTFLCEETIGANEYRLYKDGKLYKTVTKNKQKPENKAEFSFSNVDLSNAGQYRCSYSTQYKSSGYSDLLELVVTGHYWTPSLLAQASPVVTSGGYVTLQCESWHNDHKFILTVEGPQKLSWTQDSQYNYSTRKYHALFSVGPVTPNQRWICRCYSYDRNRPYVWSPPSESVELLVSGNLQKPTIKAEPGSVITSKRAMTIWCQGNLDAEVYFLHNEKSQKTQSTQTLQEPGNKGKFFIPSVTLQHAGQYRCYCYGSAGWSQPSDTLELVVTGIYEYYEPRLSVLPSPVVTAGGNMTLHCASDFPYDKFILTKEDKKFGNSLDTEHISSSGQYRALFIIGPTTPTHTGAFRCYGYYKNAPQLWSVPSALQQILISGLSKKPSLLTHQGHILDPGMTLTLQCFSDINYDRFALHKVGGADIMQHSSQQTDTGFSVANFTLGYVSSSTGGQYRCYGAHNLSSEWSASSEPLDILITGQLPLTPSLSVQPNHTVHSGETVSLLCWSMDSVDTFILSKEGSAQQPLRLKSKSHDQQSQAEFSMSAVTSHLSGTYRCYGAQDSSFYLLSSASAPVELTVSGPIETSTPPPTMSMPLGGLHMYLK

recombinant ILT2 [5] = biological target: T3, recombinant ILT2; assay: binding ELISA, hILT2-Fc; positive control is GHI/75 by paragraph 227
[6] = biological target: T5, recombinant human ILT2-Fc conjugated with biotin (human, UniProt Q8NHL6 24-458, limits assumed, conjugated with biotin (sites not given)); assay: flow cytometry blocking assay: ILT2-biotin binding to cells expressing HLA-G
T5 construct: It is written here as ILT2 then Fc; also called ILT2-biotin; biotinylated ILT2; not shown: Fc portion of human IgG1
Procedure: (§1) Flow cytometry blocking assay—Recombinant human ILT2 protein fused with the Fc portion of human IgG1 at the N terminal was conjugated with biotin (Innova bioscience). A total of 5×10⁵ A375/HLA-G1 cells were incubated in a volume of 100 μL in the presence of anti-ILT2 clone #1 or isotype matched control mAb and ILT2-Fc conjugated with biotin (10 μg/mL) for 30 minutes at room temperature. After several washing steps, streptavidin-PE was added at a final concentration of 0.2 μg/mL and incubated for 30 min on ice followed by FACS analysis.
(§2) The ability of the generated anti-ILT2 antibodies to block the interaction between HLA-G and ILT2 was tested using four different assays. First, a blocking flow cytometry assay was performed. HLA-G transfected A375 cells were incubated with biotinylated ILT2 in the presence of the antibodies of the invention and a positive control antibody. The commercially available anti-ILT2 antibody GHI/75 (BioLegend, cat #333704) was used as the positive control. The binding of ILT2-biotin to the cells was determined using Streptavidin-PE by flow cytometry analysis (FIG. 8A). The percent of blocking was determined by normalizing to a negative control (ILT2 binding in the presence of control IgG). […] The percentage of blocking was calculated at various concentrations of antibody (FIG. 8C).

[7] = biological target: T6, ILT2/CD3z chimera on BW5417.3 cells (human; mouse, UniProt P24161 31-164, limits assumed); assay: flow cytometry titration on BW cells transfected with human ILT2, y axis FAB
T6 construct: domain: trans-membrane and cytoplasmic residues; Expressed on the surface of the mouse BW T cell line; also called BW-ILT2; BW/ILT2z

LILRA1 [8] = biological target: T2, LILRA1; assay: binding ELISA, column hLILRA1-His
recombinant ILT2 [9] = biological target: T3, recombinant ILT2; assay: competition ELISA on ILT2: biotinylated 15G8 at 1 µg/ml as the labelled competitor, unbiotinylated 15G8 varied
Procedure: This raises the question of the epitope of GHI/75 and other commercial antibodies. Though the epitopes of these antibodies are not published a competition ELISA assay was performed to see if 15G8 and GHI/75 and HP-F1 could bind ILT2 at the same time. Biotinylated 15G8 antibody was used at a constant concentration (1 μg/ml) in an ILT2 binding ELISA. GHI/75 and HP-F1 were added in increasing concentrations and competition was assessed. Regardless of the amount of these two antibodies added, neither one competed with 15G8 for binding to ILT2 (FIG. 19). In contrast, when naked (unbiotinylated) 15G8 was added, the binding decreased in a dose dependent manner as expected. […] This makes 15G8 the first anti-ILT2 antibody ever identified to bind this epitope, to specifically block interaction with B2M and to be able to simultaneously activate/recruit T cells, NK cells and macrophages/dendritic cells against cancer.

PIRB [10] = biological target: T4, PIRB; assay: binding ELISA, column PIRB
ILT6 [11] = biological target: T1, ILT6; assay: binding ELISA, column hILT6-His
[12] = biological target: T5, recombinant human ILT2-Fc conjugated …; assay: flow cytometry blocking assay: ILT2-biotin binding to cells expressing HLA-G; remark: listed apart in the source
Procedure: as §1, §2

T3 sequence (Q8NHL6 24-461 limits assumed): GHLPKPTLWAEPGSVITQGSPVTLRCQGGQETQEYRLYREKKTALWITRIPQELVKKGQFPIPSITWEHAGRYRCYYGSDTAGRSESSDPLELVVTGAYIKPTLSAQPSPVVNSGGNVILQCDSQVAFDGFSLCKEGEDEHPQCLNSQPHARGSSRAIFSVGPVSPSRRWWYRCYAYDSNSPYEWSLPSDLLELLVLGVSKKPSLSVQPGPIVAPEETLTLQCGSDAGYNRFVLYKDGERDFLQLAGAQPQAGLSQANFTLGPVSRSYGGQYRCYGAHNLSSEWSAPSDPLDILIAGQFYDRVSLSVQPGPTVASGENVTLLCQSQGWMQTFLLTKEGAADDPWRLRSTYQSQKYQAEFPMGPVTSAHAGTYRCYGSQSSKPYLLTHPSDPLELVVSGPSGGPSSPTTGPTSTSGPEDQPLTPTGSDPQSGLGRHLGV
T5 sequence (Q8NHL6 24-458 limits assumed): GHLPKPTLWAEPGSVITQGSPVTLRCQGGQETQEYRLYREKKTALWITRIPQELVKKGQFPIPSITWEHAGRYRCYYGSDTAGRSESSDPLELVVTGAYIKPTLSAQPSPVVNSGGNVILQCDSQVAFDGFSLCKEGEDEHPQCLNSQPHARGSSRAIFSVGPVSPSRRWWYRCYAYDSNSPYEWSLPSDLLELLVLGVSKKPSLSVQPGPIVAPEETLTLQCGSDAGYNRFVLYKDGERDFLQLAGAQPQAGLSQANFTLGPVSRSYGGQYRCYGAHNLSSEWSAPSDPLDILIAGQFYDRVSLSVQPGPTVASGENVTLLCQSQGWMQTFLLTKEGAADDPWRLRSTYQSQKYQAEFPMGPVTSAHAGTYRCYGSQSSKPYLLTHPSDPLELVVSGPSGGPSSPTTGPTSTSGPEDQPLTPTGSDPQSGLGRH
T1 sequence (Q8N6C8 24-439 limits assumed): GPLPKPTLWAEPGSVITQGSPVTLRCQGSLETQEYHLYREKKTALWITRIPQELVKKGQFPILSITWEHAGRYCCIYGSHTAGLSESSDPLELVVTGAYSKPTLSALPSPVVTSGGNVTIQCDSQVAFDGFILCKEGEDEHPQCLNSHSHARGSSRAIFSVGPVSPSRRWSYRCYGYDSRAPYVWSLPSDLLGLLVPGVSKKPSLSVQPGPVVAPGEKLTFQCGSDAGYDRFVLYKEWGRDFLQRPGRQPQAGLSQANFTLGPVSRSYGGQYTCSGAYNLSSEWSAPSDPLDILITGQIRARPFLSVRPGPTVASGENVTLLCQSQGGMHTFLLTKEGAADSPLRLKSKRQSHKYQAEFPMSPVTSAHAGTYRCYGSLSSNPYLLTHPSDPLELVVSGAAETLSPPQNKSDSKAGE
T2 sequence (O75019 17-461 limits assumed): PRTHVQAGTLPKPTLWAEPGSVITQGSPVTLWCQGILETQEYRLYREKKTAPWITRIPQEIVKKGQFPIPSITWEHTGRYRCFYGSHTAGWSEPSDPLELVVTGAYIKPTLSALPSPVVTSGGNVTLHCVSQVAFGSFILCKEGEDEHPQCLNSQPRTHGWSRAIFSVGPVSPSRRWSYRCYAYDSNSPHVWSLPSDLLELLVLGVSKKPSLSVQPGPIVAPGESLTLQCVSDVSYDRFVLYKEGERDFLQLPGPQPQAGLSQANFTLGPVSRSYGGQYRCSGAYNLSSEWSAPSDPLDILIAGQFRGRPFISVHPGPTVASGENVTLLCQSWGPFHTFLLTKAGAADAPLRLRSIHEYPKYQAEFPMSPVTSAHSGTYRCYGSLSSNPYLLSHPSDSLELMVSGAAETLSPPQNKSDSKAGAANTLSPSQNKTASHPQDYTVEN
T6 sequence (P24161 other isoform, or with tags, fused parts or gaps mutant limits assumed): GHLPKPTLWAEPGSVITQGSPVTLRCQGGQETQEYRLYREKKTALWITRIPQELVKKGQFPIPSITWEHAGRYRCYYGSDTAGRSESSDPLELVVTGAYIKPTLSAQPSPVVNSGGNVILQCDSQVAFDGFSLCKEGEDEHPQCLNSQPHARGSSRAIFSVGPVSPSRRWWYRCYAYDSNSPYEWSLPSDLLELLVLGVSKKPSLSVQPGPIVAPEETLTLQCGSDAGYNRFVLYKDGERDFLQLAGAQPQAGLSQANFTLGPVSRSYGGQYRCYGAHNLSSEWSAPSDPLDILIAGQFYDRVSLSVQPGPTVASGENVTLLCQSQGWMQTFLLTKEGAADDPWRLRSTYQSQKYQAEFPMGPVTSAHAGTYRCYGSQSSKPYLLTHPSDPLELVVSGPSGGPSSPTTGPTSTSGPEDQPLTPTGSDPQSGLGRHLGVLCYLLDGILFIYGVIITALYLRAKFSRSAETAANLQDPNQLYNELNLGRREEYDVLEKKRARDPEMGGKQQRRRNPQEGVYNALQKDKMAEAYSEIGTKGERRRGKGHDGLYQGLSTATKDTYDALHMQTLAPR

Molecule: Negative
- ELISA (OD) (ILT6 [1]): 0.071 OD
- ELISA (OD) (LILRA1 [2]): 0.13 OD
- ELISA (OD) (recombinant ILT2 [3]): 0.05 OD
- ELISA (OD) (PIRB [4]): 0.0575 OD

Molecule: GHI/75 commercial mouse anti-human ILT2 antibody (BioLegend, Cat. No. 333704)
- ELISA (OD) (recombinant ILT2 [5]): 2.45 OD

B1: chimeric 15G8 (antibody, V domains shown)
VH: DVQLQGSGPGLVKPSQSLSLTCSVTGYSITSGYYWNWIRQFPGNKLEWMGYISYDGSNNYNPSLKNRISITRDTSKNQFFLKLNSVTSEDTATYYCAHGYSYYYAMDCWGQGTSVTVSS
VL: DIQMTQTTSSLSASLGDRVTISCRTSQDISNYLNWYQQKPDGTVKLLISYTSRLHSGVPSRFSGSGSGTDYSLTISNLEQEDIATYFCQQGNTLPTFGSGTKLEIK
notes: Constant regions not described; also called chimeric murine 15G8
- IC50 (read off the curve) [6]: ~0.2 µg/mL
- EC50 (read off the curve) [7]: ~0.5 µg/mL

B2: 15G8 (original hybridoma-derived murine anti-ILT2 antibody) (antibody, V domains shown)
VH: DVQLQGSGPGLVKPSQSLSLTCSVTGYSITSGYYWNWIRQFPGNKLEWMGYISYDGSNNYNPSLKNRISITRDTSKNQFFLKLNSVTSEDTATYYCAHGYSYYYAMDCWGQGTSVTVSS
VL: DIQMTQTTSSLSASLGDRVTISCRTSQDISNYLNWYQQKPDGTVKLLISYTSRLHSGVPSRFSGSGSGTDYSLTISNLEQEDIATYFCQQGNTLPTFGSGTKLEIK
notes: also called 15G8 antibody
- binding result (LILRA1 [8]): no binding
- IC50 (read off the curve) (recombinant ILT2 [9]): ~3 µg/mL
- binding result (PIRB [10]): no binding
- binding result (ILT6 [11]): no binding

B3: humanized 15G8 (alanine variant) (antibody, V domains shown)
VH: DVQLQGSGPGLVKPSETLSLTCSVTGYSITSGYYWNWIRQFPGKKLEWMGYISYDGSNNYNPSLKNRITISRDTSKNQFSLKLNSVTAADTATYYCAHGYSYYYAMDAWGQGTSVTVSS
VL: DIQMTQSPSSLSASVGDRVTITCRTSQDISNYLNWYQQKPGKAVKLLISYTSRLHSGVPSRFSGSGSGTDYTLTISSLQPEDFATYYCQQGNTLPTFGQGTKLEIK
notes: also called 15G8 humanized antibody; humanized antibody 15G8
- IC50 (read off the curve) [6]: ~0.2 µg/mL
- EC50 (read off the curve) [7]: ~0.5 µg/mL
- IC50 (read off the curve) [12]: ~0.3 µg/mL
